Experimental data: PMC3338619, “Ligand Binding Study of Human PEBP1/RKIP: Interaction with Nucleotides and Raf-1 Peptides Evidenced by NMR and Mass Spectrometry” (PLoS ONE, 2012)
Square brackets hold non-standard residues; d marks the D form. Ends that are not written are not given here. pY = N[C@@H](Cc1ccc(OP(=O)(O)O)cc1)C(=O)O; pS = N[C@@H](COP(=O)(O)O)C(=O)O

What was measured:
[1] = target: T1, Human Phosphatidylethanolamine binding protein 1 (hPEBP1) (human, UniProt P30086 1-187); test: native MS; hPEBP1 incubated with a range of peptide concentrations, bound protein fraction measured by ESI-MS; ammonium acetate 20 mM, pH 6.6, 20°C; conditions: both partners purified
T1 construct: the NMR assignment counts 187 residues in all, from Met1 to Lys187; The NMR samples were uniformly 15N-labelled; also called RKIP; source: E. coli BL21 (DE3), pET31b, purified (anion exchange, cation exchange); 15N-labelled for NMR, non-labelled recombinant for mass spectrometry
T1 sequence (P30086 whole entry): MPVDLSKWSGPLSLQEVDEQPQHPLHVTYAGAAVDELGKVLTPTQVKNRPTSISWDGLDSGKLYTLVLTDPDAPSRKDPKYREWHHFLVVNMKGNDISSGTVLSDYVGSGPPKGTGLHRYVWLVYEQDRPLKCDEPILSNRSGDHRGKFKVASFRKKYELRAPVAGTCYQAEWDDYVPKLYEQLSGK

[2] = target: T1, Human Phosphatidylethanolamine binding …; test: native MS; hPEBP1 incubated with a range of peptide concentrations, bound protein fraction measured by ESI-MS; ammonium bicarbonate (ABC), pH 7.4, 25°C; conditions: both partners purified

B1: tri-phosphorylated Raf-1 peptide (residues 331-349) (peptide)
peptide: RPRGQRD[pS][pS]Y[pY]WEIEASEV
notes: Raf-1 N-region, residues 331-349; three phospho-amino acids at Ser338, Ser339 and Tyr341; also called 3P; Raf-1 peptide; Raf-1 peptide in tri-phosphorylated form; source: synthetic peptide (solid-phase, Fmoc strategy)
Kd [1]: 45 ± 12 µM
Kd [2]: 11 ± 3 µM
